We go through two proteins from US6383734.

Data set [1] deals with Raf-CR3 (wild type), recombinant Raf-1 catalytic fragment, calmodulin binding protein fusion, P04049.
Another data set concerns the target T1, Raf-1 (331-345) peptide.
T1 chain: RPRGQRDSSFFWEIE

The target in data set [2] is Raf-CR3[D338E339], P04049.
In data set [3] the target is Raf-CR3[A338A339], P04049.

B1: recombinant His-tagged mouse PAK3 from Sf9 cells (protein)
chain: MSDSLDNEEKPPAPPLRMNSNNRDSSALNHSSKPLPMAPEEKNKKARLRSIFPGGGDKTNKKKEKERPEISLPSDFEHTIHVGFDAVTGEFTGIPEQWARLLQTSNITKLEQKKNPQAVLDVLKFYDSKETVNNQKYMSFTSGDKSAHGYIAAHQSNTKTASEPPLAPPVSEEEDEEEEEEEDDNEPPPVIAPRPEHTKSIYTRSVVESIASPAAPNKEDIPPSAENANSTTLYRNTDRQRKKSKMTDEEILEKLRSIVSVGDPKKKYTRFEKIGQGASGTVYTALDIATGQEVAIKQMNLQQQPKKELIINEILVMRENKNPNIVNYLDSYLVGDELWVVMEYLAGGSLTDVVTETCMDEGQIAAVCRECLQALDFLHSNQVIHRDIKSDNILLGMDGSVKLTDFGFCAQITPEQSKRSTMVGTPYWMAPEVVTRKAYGPKVDIWSLGIMAIEMVEGEPPYLNENPLRALYLIATNGTPELQNPERLSAVFRDFLNRCLEMDVDRRGSAKELLQHPFLKLAKPLSSLTPLIIAAKEAIKNSSR
B1: the “phosphorylation of Raf-CR3” value in data set [1] is “strongly phosphorylated wild type Raf-CR3”. The “phosphorylation of the Raf-1 peptide” value with Raf-1 (331-345) peptide is reported as “Recombinant His-tagged mouse PAK3 from Sf9 cells phosphorylated the Raf-1 peptide”.

B2: full-length PAK3 from rat spleen lysate (protein)
chain: SDNGELEDKPPAPPVRMSSTIFSTGGKDPLSANHSLKPLPSVPEEKKPRNKIISIFSSTEKGSKKKEKERPEISPPSDFEHTIHVGFDAVTGEFTGMPEQWARLLQTSNITKLEQKKNPQAVLDVLKFYDSNTVKQKYLSFTPPEKDGFPSGTPALNTKGSETSAVVTEEDDDDEDAAPPVIAPRPDHTKSIYTRSVIDPIPAPVGDSNVDSGAKSSDKQKKKAKMTDEEIMEKLRTIVSIGDPKKKYTRYEKIGQGASGTVFTATDVALGQEVAIKQINLQKQPKKELIINEILVMKELKNPNIVNFLDSYLVGDELFVVMEYLAGGSLTDVVTETCMDEAQIAAVCRECLQALEFLHANQVIHRDIKSDNVLLGMEGSVKLTDFGFCAQITPEQSKRSTMVGTPYWMAPEVVTRKAYGPKVDIWSLGIMAIEMVEGEPPYLNENPLRALYLIATNGTPELQNPEKLSPIFRDFLNRCLEMDVEKRGSAKELLQHPFLKLAKPLSSLTPLILAAKEAMKSNR
As to B2, the “phosphate incorporation into Raf-CR3” value in data set [2] was “reduced ability of immunoprecipitated PAK3 to phosphorylate the Raf-CR3[A338,A339] or Raf-CR3[D338,E339] mutant proteins”; in data set [1] it was 4-fold more phosphate into wild type Raf-CR3 than into the non-phosphorylatable Raf-CR3[D338E339] or Raf-CR3[A338A339] site mutants; in data set [3], “reduced ability of immunoprecipitated PAK3 to phosphorylate the Raf-CR3[A338,A339] or Raf-CR3[D338,E339] mutant proteins”.
